Source: patent US20250197490A1 (HBM ALPHA THERAPEUTICS, published 2025)
Changes are numbered by the printed parent chain.

What was measured:
[1] = biological target: T1, corticotropin-releasing hormone (CRH) peptide (human and mouse, UniProt P01143 145-185 (rat entry), not fully specified); experiment: cell-based or functional assay
T1 peptide: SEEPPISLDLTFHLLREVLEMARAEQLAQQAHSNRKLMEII

[2] = biological target: T2, biotinylated CRH (human and mouse, UniProt P01143 145-185 (rat entry), not fully specified; biotin; which end is not stated for the result (NT-biotin and CT-biotin forms were used)); experiment: ELISA, CRH (NT biotin)
T2 construct: also called biotin-CRH; CRH (NT biotin)
T2 peptide: T1 peptide
Procedure: (§1) Streptavidin (Thermo, Cat: 21125) was diluted in PBS to a concentration of 2 μg/ml. 100 μl of diluted streptavidin was added per well to ELISA microplates, and the plates were incubated overnight at 4° C. […] Subsequently, plates were washed and incubated with HRP-conjugated goat anti-human IgG (H+L) antibody (Jackson, Cat: 109-035-088) at 37° C. for 1 hour. 100 μL of 3,3′,5,5′-tetramethylbenzidine (TMB) substrate (Biopanda, Cat: TMB-S-003) was added, and the plates were incubated at room temperature for 15 minutes. 100 μL of ELISA stopping solution (Solarbio, Cat #: C1058) was added to terminate the reaction, and the optical density at 450 nm (OD450 nm) was determined by an ELISA plate reader (Molecular Devices, Spectra max 384 plus).
These potential PTMs were mutated individually either in HCDR2 alone, in LCDR1 alone, or in various combinations of mutations, as detailed in Table 3. […] Most ΔPTM variants retained functional activities.

[3] = biological target: T3, CRH (Central Region, NT Biotin) (N-terminal Biotin-K; C-terminal NH2); experiment: ELISA, CRH central region peptide (NT biotin)
T3 construct: also called Central CRH
T3 peptide: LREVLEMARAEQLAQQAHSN
Procedure: as §1

[4] = biological target: T2, biotinylated CRH; experiment: ELISA, CRH (NT biotin)
Procedure: as §1

[5] = biological target: T2, biotinylated CRH; experiment: ELISA, CRH (CT biotin)
Procedure: as §1

[6] = biological target: T4, human UCN3 peptide, biotinylated (human, UniProt Q969E3 120-157, biotin at N- or C-terminus); experiment: ELISA, hUCN3 (NT biotin) and (CT biotin)
T4 construct: also called hUCN3 (NT Biotin); hUCN3 (CT Biotin)
T4 peptide (looked up): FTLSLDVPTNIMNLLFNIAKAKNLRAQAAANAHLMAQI
Procedure: (§2) Streptavidin (Thermo, Cat: 21125) was diluted in PBS with a concentration of 2 μg/mL. 100 μL of diluted streptavidin was added per well to ELISA microplates, and the plates were incubated overnight at 4° C. Plates were blocked with ELISA blocking solution (containing 2% w/v BSA, 0.05% (v/v) Tween-20, pH 7.4 PBS buffer) at 37° C. for 1 hour, and then incubated with either 1 μg/mL hUCN1 (NT Biotin), hUCN1 (CT Biotin), hUCN2 (NT Biotin), hUCN2 (CT Biotin), hUCN3 (NT Biotin), or hUCN3 (CT Biotin) for 1 hour at 37° C. […] Plates were subsequently washed and incubated with HRP-conjugated goat anti-human IgG (H+L) antibody (Jackson, Cat: 109-035-088) at 37° C. for 1 hour. 100 μl of TMB Substrate (Biopanda, Cat: TMB-S-003) was added, and the plates were incubated at room temperature for 15 minutes. 100 μL of ELISA stopping solution (Solarbio, Cat #: C1058) was then added to terminate the reaction, and the OD450 nm was determined by an ELISA plate reader (Molecular Devices, Spectra max 384 plus).

[7] = biological target: T5, CRH (Central Region, CT Biotin) (C-terminal K-Biotin); experiment: ELISA, CRH central region peptide (CT biotin)
T5 construct: also called Central CRH
T5 peptide: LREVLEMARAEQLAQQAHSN
Procedure: as §1

[8] = biological target: T6, N-Terminal CRH peptide (N-terminal region plus central region, CT biotin) (human and mouse, C-terminal K-Biotin); experiment: ELISA, N-Ter-CRH (CT-biotin) on streptavidin
T6 construct: also called N-Ter-CRH
T6 peptide: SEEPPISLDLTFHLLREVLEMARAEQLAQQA
Procedure: as §1

[9] = biological target: T2, biotinylated CRH; experiment: Octet in-tandem competition on captured CRH; row = 1st mAb; competitor (2nd mAb) PR302341-34
Procedure: (§3) SA sensors (Fortebio, Cat #18-5019) were hydrated in running buffer for 10 mins.

[10] = biological target: T7, human UCN1 peptide, biotinylated (human, UniProt P55089 83-122, biotin at N- or C-terminus); experiment: ELISA, hUCN1 (NT biotin) and (CT biotin), mAb at 100 and 10 nM
T7 construct: also called hUCN1 (NT Biotin); hUCN1 (CT Biotin)
T7 peptide (looked up): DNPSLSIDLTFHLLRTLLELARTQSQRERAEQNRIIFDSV
Procedure: as §2

[11] = biological target: T1, corticotropin-releasing hormone (CRH) …; experiment: cell-based or functional assay
[12] = biological target: T8, human UCN2 peptide, biotinylated (human, UniProt Q96RP3 72-109, limits assumed, biotin at N- or C-terminus); experiment: ELISA, hUCN2 (NT biotin) and (CT biotin)
T8 construct: also called hUCN2 (NT Biotin); hUCN2 (CT Biotin)
T8 peptide (looked up): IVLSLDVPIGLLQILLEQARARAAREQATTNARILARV
Procedure: as §2

[13] = biological target: T9, CRH (C-Terminal Region, NT Biotin) (N-terminal Biotin-K; C-terminal NH2); experiment: ELISA, CRH C-terminal region peptide (NT biotin)
T9 construct: central region plus C-terminal region of CRH; also called C-Terminal CRH; C-Ter-CRH
T9 peptide: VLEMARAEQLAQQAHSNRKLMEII
Procedure: as §1

[14] = biological target: T2, biotinylated CRH; experiment: ELISA, CRH (NT biotin)
[15] = biological target: T7, human UCN1 peptide, biotinylated; experiment: ELISA, hUCN1 (NT biotin)
Procedure: as §1

[16] = biological target: T1, corticotropin-releasing hormone (CRH) …; experiment: cell-based or functional assay
[17] = biological target: T7, human UCN1 peptide, biotinylated; experiment: ELISA, hUCN1 (CT biotin)
Procedure: as §1

[18] = biological target: T2, biotinylated CRH; experiment: Octet in-tandem competition on captured CRH; row = 1st mAb; competitor (2nd mAb) PR006669
Procedure: as §3

[19] = biological target: T2, biotinylated CRH; experiment: ELISA, CRH (CT biotin)

B1: PR005656 (antibody, human IgG1, kappa, V domains shown)
VH: EVQLVESGGVLVQPGGSLRLSCAASGFTFSSYWMTWVRQAPGKGLEWVANIKQEGSEKYYVDSVKGRFTISRDNAKNSLFLQMNSLRAEDTAVYYCARTLIFDYWGQGTLVTVSS
VL: DIVMTQSPLSLPVTPGEPASISCRSSQSLLHSTGYNSLEWYLQKPGQSPQLLIYLGSNRASGVPDRFSGSGSGTDFTLKISRVEAEDVGIYYCMQTLQTPITFGQGTRLEIKR
IC50 (read off the curve), CRH-induced mCRHR1 luciferase reporter [1]: ~4 nM | EC50 (read off the curve) [2]: ~0.03 nM

B2: PR005660 (antibody, human IgG1, kappa, V domains shown)
VH: B1 VH
VL: B1 VL with N36Q
binding result [3]: no binding (tested: 100 nM) | EC50 (read off the curve) [4]: ~0.03 nM | EC50 (read off the curve) [2]: ~0.03 nM | EC50 (read off the curve) [5]: ~0.05 nM | binding result [6]: no binding (tested: 100 nM) | binding result [7]: no binding (tested: 100 nM) | EC50 [8]: 0.076 nM | % Inhibition [9]: 90% | binding result [10]: binds | IC50 in the hCRHR1 reporter assay [11]: ~10 nM | binding result [12]: no binding (tested: 100 nM) | binding result [13]: no binding (tested: 100 nM)

B3: PR301790 (antibody, human IgG1, kappa, V domains shown)
VH: EMKLEESGGGLVQPGGSMKLSCVASGFTFSNYWMNWVRQSPEKGLEWVAEIRLKSNNYATHYAESVKGRFTISRDDSKSSVYLQMNNLRAEDTGIYYCTIGTLVYWGQGTLVTVSA
VL: DIVLTQSPASLAVSLGQRATISCRASQSVSTSSYNYMHWYQQKPGQPPKLLIKFASNLESGVPARFSGSGSGTDFTLNIHPVEEEDTATFYCQHSWEIPYTFGGGTKLEIKR
binding result [14]: binds

B4: PR301803 (antibody, human IgG1, kappa, V domains shown)
VH: B3 VH with M2V, S30N, V66L, I100V
VL: B3 VL with A12V, S33T
binding result [14]: binds

B5: PR302064 (antibody, human IgG1, kappa, V domains shown)
VH: EMQLVESGGGLVKPGGSLRLSCAASGFTFSNYWMNWVRQAPGKGLEWVAEIRLKSNNYATHYAESVKGRFTISRDDSKSTVYLQMNSLKTEDTAVYYCTVGTLVYWGQGTLVTVSS
VL: DIVLTQSPDSLAVSLGERATINCRASQSVSTSTYNYMHWFQQKPGQPPKLLIKFASNLESGVPDRFSGSGSGTDFTLTISSLQAEDTAVYYCQHSWEIPYTFGQGTKLEIKR
EC50 (read off the curve) [15]: ~0.1 nM | binding result [3]: no binding (tested: 100 nM) | EC50 (read off the curve) [4]: ~0.03 nM | EC50 (read off the curve) [5]: ~0.03 nM | binding result [6]: no binding (tested: 100 nM) | binding result [7]: no binding (tested: 100 nM) | unlabelled nM value (Table 5 matrix; likely hCRHR1-Luc IC50 as in Tables 6-8) [16]: 0.531 nM | EC50 [8]: 0.022 nM | EC50 (read off the curve) [17]: ~0.2 nM | binding result [12]: no binding (tested: 100 nM) | binding result [13]: no binding (tested: 100 nM)

B6: PR303394 (antibody, human IgG1, kappa, V domains shown)
VH: EVQLQQSGPELVKPGVSMKISCKASGYSFTDSTMNWVKQSHGKNLEWIGLIHPDNGGTIYNQKFKGKATLTVHKSSSTAYMELLSLTSEDSAVYYCANGFAYWGQGTLVTVSA
VL: DVVMTQTPLSLPVSLGDQASISCRSSQSLLHSNGNTYLHWYLQKPGQSPELLIYKVSNRFSGVPDRFSGSGSGTDFTLKISRVEAEDLGVYFCSQSTHVPLTFGAGTKLELKR
notes: also called analog of CTRND05
EC50 (read off the curve) [15]: ~0.02 nM | EC50 (read off the curve) [4]: ~0.03 nM | EC50 (read off the curve) [5]: ~0.03 nM | binding result [6]: no binding (tested: 100 nM) | % Inhibition [18]: 90% | EC50 (read off the curve) [17]: ~0.02 nM | binding result [12]: no binding (tested: 100 nM)

B7: PR301612 (antibody, human IgG1, kappa, V domains shown)
VH: EVKLEESGGGLVQPGGSIKLSCVASGFTFSGAWMAWVRQSPEKGLEWVAEIKNKANNHATFYAESVKGRFIISRDDSKSSVYLQMNSLRAEDTGTYYCTLPDVWGTGTTVTVSS
VL: QIVLTQSPAIMSASPGERVTISCSASSSVSNMYWYLQKPGSSPKPWIYRTSNLASGVPARFSGSGSGTSYSLTISSMEAEDVATYYCQQYHSFPRTFGGGTKLEIKR
EC50 (read off the curve) [19]: ~0.03 nM

B8: PR301780 (antibody, human IgG1, kappa, V domains shown)
VH: QIQLVQSGPELKKPGETVKISCKASGYTFTNFGLNWVKQAPGKGLKWMGWINTYTGEPTYTDDFKGRFAFSLETSASTAYLQINNLKKEDTATYFCARGTYRDDGAWFAYWGQGTLVTVSA
VL: DVLMTQTPLSLPVSLGDQASISCRSSQIIVHSNGNTYLEWYLQKPGQSPKLLIYKVSNRFSGVPDRFSGSGSGTDFTLKISRVEAEDLGVYHCFQGSHVPWTFGGGTKLEIKR
binding result [14]: binds
